Measurements taken from US11278600B2, “Human alpha-galactosidase variants” (Codexis, Inc., priority 2014, dated 2022).
Substitutions are numbered along the chain they refer to.

B1: 365 (protein)
chain: LDNGLARTPTMGWLHWERFMCNLDCQEEPDSCISEKLFMEMAERMVNEGWKDAGYEYLCIDDCWMAPQRDSEGRLQADPQRFPHGIRQLANYVHSKGLKLGIYADVGNKTCAGFPGSFGYYDIDAQTFADWGVDLLKFDGCYCDSLENLADGYKHMSLALNRTGRSIVYSCEWPLYMWPFQKPNYTEIRQYCNHWRNFADIDDSWKSIKSILDWTSRNQERIVDVAGPGGWNDPDMLVIGNFGLSWDQQVTQMALWAIMAAPLFMSNDLRHISPQAKALLQDKDVIAINQDPLGKQGYQLRKGDNFEVWERPLSGDAWAVAIINRQEIGGPRSYTIPVASLGKGVACNPACFITQLLPVKRQLGFYNWTSRLKSHINPTGTVLLQLENTMQMSLKDLL
modifications: Synthetic Polypeptide sequence of Variant No. 365 of mature Human GLA
B2: 452 (protein)
chain: B1 chain with N47S, H271R
modifications: Synthetic Polypeptide sequence of Variant No. 452 of mature Human GLA
B3: 445 (protein)
chain: B1 chain with N47S, L263F
modifications: Synthetic Polypeptide sequence of Variant No. 445 of mature Human GLA
B4: 451 (protein)
chain: B1 chain with N47S, M259V
modifications: Synthetic Polypeptide sequence of Variant No. 451 of mature Human GLA
B5: 446 (protein)
chain: B1 chain with N47S, M259A
modifications: Synthetic Polypeptide sequence of Variant No. 446 of mature Human GLA
B6: 444 (protein)
chain: B1 chain with N47S, M259W
modifications: Synthetic Polypeptide sequence of Variant No. 444 of mature Human GLA
B7: 366 (protein)
chain: B1 chain with N47V
modifications: Synthetic Polypeptide sequence of Variant No. 366 of mature Human GLA
B8: 440 (protein)
chain: B1 chain with N47S, L263C
modifications: Synthetic Polypeptide sequence of Variant No. 440 of mature Human GLA
B9: 441 (protein)
chain: B1 chain with N47S, H271V
modifications: Synthetic Polypeptide sequence of Variant No. 441 of mature Human GLA
B10: 450 (protein)
chain: B1 chain with N47S, I258M
modifications: Synthetic Polypeptide sequence of Variant No. 450 of mature Human GLA
B11: 443 (protein)
chain: B1 chain with N47S, K206A, L255S
modifications: Synthetic Polypeptide sequence of Variant No. 443 of mature Human GLA
B12: 449 (protein)
chain: B1 chain with N47S, L255T
modifications: Synthetic Polypeptide sequence of Variant No. 449 of mature Human GLA
B13: 439 (protein)
chain: B1 chain with N47S, H271A
modifications: Synthetic Polypeptide sequence of Variant No. 439 of mature Human GLA
B14: 448 (protein)
chain: B1 chain with N47S, R270Q
modifications: Synthetic Polypeptide sequence of Variant No. 448 of mature Human GLA
B15: 447 (protein)
chain: B1 chain with N47S, L263W
modifications: Synthetic Polypeptide sequence of Variant No. 447 of mature Human GLA
B16: 442 (protein)
chain: B1 chain with N47S, L255A
modifications: Synthetic Polypeptide sequence of Variant No. 442 of mature Human GLA

assay: HTP-analysis of supernatants pretreated with base (MUGal hydrolysis); assay type: biochemical; details: activity of the variant/activity of Rd4BB (SEQ ID NO: 15); challenge at pH 9.65
How it was run: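 GLA variants were secreted by transformed INVSc1 yeast grown 66-84 h at 30° C. Supernatants were exposed to neutral-to-basic buffers (pH 7.0-9.7) at 37° C for 1-18 h, then assayed with MUGal in acidic citrate/McIlvaine buffer, with fluorescence read after quenching.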

Molecule	Relative Activity of GLA Variants After Challenge at pH 9.65
B1	+ (0.5 to 1.5 relative activity over Rd4BB (SEQ ID NO: 15))
B2	+ (0.5 to 1.5 relative activity over Rd4BB (SEQ ID NO: 15))
B3	− (<0.5 relative activity over Rd4BB (SEQ ID NO: 15))
B4	− (<0.5 relative activity over Rd4BB (SEQ ID NO: 15))
B5	− (<0.5 relative activity over Rd4BB (SEQ ID NO: 15))
B6	+ (0.5 to 1.5 relative activity over Rd4BB (SEQ ID NO: 15))
B7	+ (0.5 to 1.5 relative activity over Rd4BB (SEQ ID NO: 15))
B8	− (<0.5 relative activity over Rd4BB (SEQ ID NO: 15))
B9	+ (0.5 to 1.5 relative activity over Rd4BB (SEQ ID NO: 15))
B10	− (<0.5 relative activity over Rd4BB (SEQ ID NO: 15))
B11	− (<0.5 relative activity over Rd4BB (SEQ ID NO: 15))
B12	− (<0.5 relative activity over Rd4BB (SEQ ID NO: 15))
B13	+ (0.5 to 1.5 relative activity over Rd4BB (SEQ ID NO: 15))
B14	− (<0.5 relative activity over Rd4BB (SEQ ID NO: 15))
B15	− (<0.5 relative activity over Rd4BB (SEQ ID NO: 15))
B16	− (<0.5 relative activity over Rd4BB (SEQ ID NO: 15))

assay: HTP-analysis of yeast culture supernatants, no challenge (MUGal hydrolysis); assay type: biochemical; details: activity of the variant/activity of Rd4BB (SEQ ID NO: 15)
How it was run: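 Activity read as 4-methylumbelliferyl α-D-galactopyranoside hydrolysis: fluorescence (355/448 nm) after sodium carbonate stop, following 30-180 min at 37° C with 2 mM MUGal stock at pH 4.6–4.8. Enzyme source is unchallenged culture supernatant of INVSc1 yeast expressing GLA variants, grown 66-84 h at 30° C.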

Molecule	Relative Activity of GLA Variants After No Challenge (NC)
B1	+ (0.5 to 1.5 relative activity over Rd4BB (SEQ ID NO: 15))
B2	+ (0.5 to 1.5 relative activity over Rd4BB (SEQ ID NO: 15))
B3	+ (0.5 to 1.5 relative activity over Rd4BB (SEQ ID NO: 15))
B4	+ (0.5 to 1.5 relative activity over Rd4BB (SEQ ID NO: 15))
B5	+ (0.5 to 1.5 relative activity over Rd4BB (SEQ ID NO: 15))
B6	+ (0.5 to 1.5 relative activity over Rd4BB (SEQ ID NO: 15))
B7	+ (0.5 to 1.5 relative activity over Rd4BB (SEQ ID NO: 15))
B8	+ (0.5 to 1.5 relative activity over Rd4BB (SEQ ID NO: 15))
B9	+ (0.5 to 1.5 relative activity over Rd4BB (SEQ ID NO: 15))
B10	+ (0.5 to 1.5 relative activity over Rd4BB (SEQ ID NO: 15))
B11	+ (0.5 to 1.5 relative activity over Rd4BB (SEQ ID NO: 15))
B12	+ (0.5 to 1.5 relative activity over Rd4BB (SEQ ID NO: 15))
B13	+ (0.5 to 1.5 relative activity over Rd4BB (SEQ ID NO: 15))
B14	+ (0.5 to 1.5 relative activity over Rd4BB (SEQ ID NO: 15))
B15	+ (0.5 to 1.5 relative activity over Rd4BB (SEQ ID NO: 15))
B16	+ (0.5 to 1.5 relative activity over Rd4BB (SEQ ID NO: 15))

assay: HTP-analysis of supernatants pretreated with acid (MUGal hydrolysis); assay type: biochemical; details: activity of the variant/activity of Rd4BB (SEQ ID NO: 15); challenge at pH 3.7
How it was run: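 GLA variants were secreted from INVSc1 yeast grown 66-84 h at 30° C. in SD-Ura with 2% glucose; supernatants were mixed with McIlvaine buffer pH 3.3-4.3 and held at 37° C. for 1-3 h. Residual activity on MUGal at pH 4.8 was then measured by fluorescence.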

Molecule	Relative Activity of GLA Variants After Challenge at pH 3.7
B1	+ (0.5 to 1.5 relative activity over Rd4BB (SEQ ID NO: 15))
B2	++ (>1.5 to 2.5 relative activity over Rd4BB (SEQ ID NO: 15))
B3	+ (0.5 to 1.5 relative activity over Rd4BB (SEQ ID NO: 15))
B4	++ (>1.5 to 2.5 relative activity over Rd4BB (SEQ ID NO: 15))
B5	− (<0.5 relative activity over Rd4BB (SEQ ID NO: 15))
B6	− (<0.5 relative activity over Rd4BB (SEQ ID NO: 15))
B7	+ (0.5 to 1.5 relative activity over Rd4BB (SEQ ID NO: 15))
B8	+ (0.5 to 1.5 relative activity over Rd4BB (SEQ ID NO: 15))
B9	− (<0.5 relative activity over Rd4BB (SEQ ID NO: 15))
B10	++ (>1.5 to 2.5 relative activity over Rd4BB (SEQ ID NO: 15))
B11	+++ (>2.5 relative activity over Rd4BB (SEQ ID NO: 15))
B12	++ (>1.5 to 2.5 relative activity over Rd4BB (SEQ ID NO: 15))
B13	+ (0.5 to 1.5 relative activity over Rd4BB (SEQ ID NO: 15))
B14	− (<0.5 relative activity over Rd4BB (SEQ ID NO: 15))
B15	− (<0.5 relative activity over Rd4BB (SEQ ID NO: 15))
B16	+ (0.5 to 1.5 relative activity over Rd4BB (SEQ ID NO: 15))
